{
  "source": "the nanobody polyreactivity screen of Harvey et al. (2022)",
  "data": [
    {"test": "yeast display, Sf9 membrane polyspecificity reagent, FACS + sequencing; frameworks hold sequencing errors", "method_in_brief": "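Sorting gates, low and high (top ~1%), were placed on anti-HA fluorescence to track expression and on streptavidin fluorescence to track reagent binding. A clone's polyreactivity label is taken from the gate it came out of. The reagent was 10% biotinylated, detergent-solubilized Sf9 membrane, applied for 1 hour at 4 °C to galactose-induced yeast display cells.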", "values": [
      {"sequence": "QVQLVESGGGLVQAGGSRRLSCAASGRVFFNNAMGWYRQAPGKDREWVAGITSGSSTNYADSVKGRFTISRDNAKNTVYLQMNSLKPEYTAVDYCNKAPSWWDVRVPFDYWGQGTQVTVSS", "polyreactivity (PSR sort gate)": "low polyreactivity"},
      {"sequence": "QVQLVESGGGLVQAGGSRRLSCAASGSTFRGNAMGWYRQAPGKERELVAAITWSGDDTYYADSVKGRFTISRDNAKNTVYLQMNSLKPEDTAVYYCAADLAAFTLAVAYTYDYWGQGTQVTVSS", "polyreactivity (PSR sort gate)": "low polyreactivity"},
      {"sequence": "QVQLVESGGGLVQAGGSRRLSCAASGSTFWYYAMGWYRQAPGKERELVAAIRWSDGSTYYADSVKGRFTISRDNAKNTVYLQMTSLKPEDTAVYYCEYYYWGQGTQVTVSS", "polyreactivity (PSR sort gate)": "low polyreactivity"},
      {"sequence": "QVQLVESGGGLVQAGGSRRLSCAASGSTVYTNAMGWSRQAPGKVRELVAAISGSGGSTYYADSVKGRFTISRDNPKNTVYLQMNSLKPEDTAVYYCAARSRNYDTRFDYWGQGTQVTVSS", "polyreactivity (PSR sort gate)": "low polyreactivity"},
      {"sequence": "QVQLVESGGGLVQAGGSRRLTCAGSGYIFRPYAKRWYRQAPGKERELVAVISSGGSTYYADSVKGRFTISRDNEKNTVYFQMNSLKPQDTAVYYCKRTLWSMGGTTYEYWGQGTQVTVSS", "polyreactivity (PSR sort gate)": "low polyreactivity"},
      {"sequence": "QVQLVESGGGLVQAGGSVRISCAASGRTFWYYAMGVYIQAPRKERELLAAITGRGGSTHYADSVKGRLTISRDNAKNTVYLPMISLKPEDTAVYYCAKDHYYRFPWGTGGYRGQGTQVTVSS", "polyreactivity (PSR sort gate)": "low polyreactivity"},
      {"sequence": "QVQLVESGGGLVQAGGTLPLSCAASGRTFNGNAMGWYRQAPGKERELVATINYSGGSTYYADSVKGRFTISRDNAKNTVYLQMNSLKPEDNAVYYCAAGGYPWYLRRGGFAGYDYWGQGTQLTVSS", "polyreactivity (PSR sort gate)": "low polyreactivity"},
      {"sequence": "QVQLVESGGGLVQAGGTLRISCAPSGSTCVVINMGWYRQAPGKERELVAAISYSGGSTYADSVKGRFTISRDNAKNTVYLQMNSLKLEDTAVYYCAARHYWWYDYWGQGTQVTVSS", "polyreactivity (PSR sort gate)": "low polyreactivity"},
      {"sequence": "QVQLVESGGGLVQAGGTLRLICAASAFIFDGYTMGWYRQAPGTERELVAAISRSGGRTYYADSVKGRFTISRDNAKNTVYLQMNSQKPEDTAVYDCAVRYRQYSQNLASDYGYWGQGTQVTVSS", "polyreactivity (PSR sort gate)": "high polyreactivity"},
      {"sequence": "QVQLVESGGGLVQAGGTLRLICAASGRISLRNGMGWYRQAPRKERELVAAITSGSSTDYADSVKGRFTISRDNAKNTVYLQMNSLKPEDTAVYYCAKDLLQSGPGAGRYDYWGQGTQVTVSS", "polyreactivity (PSR sort gate)": "low polyreactivity"},
      {"sequence": "QVQLVESGGGLVQAGGTLRLSCAASGGIFTDYTMGWYRQAPGKERELVAAITWTGGSTYYADSVKGRFTISRDNAKNTVYLQMNSLKPEDTAVYYCAADDYWVNLDYWGQGTQVTVSS", "polyreactivity (PSR sort gate)": "low polyreactivity"},
      {"sequence": "QVQLVESGGGLVQAGGTLRLSCAASGGIIAINAMVWYRQAPGKERELVAAISWGDGITYYADSVKGRFTISRDNAKNTVYLQMNSLKPEDTAVYYCAADEDEYRGGDETWGQGSQVTVSS", "polyreactivity (PSR sort gate)": "low polyreactivity"},
      {"sequence": "QVQLVESGGGLVQAGGTLRLSCAASGGTSRSYAMVWYRQAPGKERELVAAISWRGGRTYYADSVKGRFTISRDNAKNTVYLQMNSLKPEDTAVYYCAARQYSQETYDYWGQGSQVTVSS", "polyreactivity (PSR sort gate)": "high polyreactivity"},
      {"sequence": "QVQLVESGGGLVQAGGTLRLSCAASGIIFSFYTMGWYRQAPGKERELVAAITWSGGSTYYADSVKGRFTISRANAKNTVYLQMNSLKPEDTAVYYCNARNPWRKRSQGYSWGQGTQVTVSS", "polyreactivity (PSR sort gate)": "low polyreactivity"},
      {"sequence": "QVQLVESGGGLVQAGGTLRLSCAASGITFEHYAMGWYRQAPGKERELVAAINRSGDNTYYADSVKGRFTISRYNAKNTFYLQMNSLKPEDTAVYYCNTVELYWRGYDYWGQGTQVTVSS", "polyreactivity (PSR sort gate)": "high polyreactivity"},
      {"sequence": "QVQLVESGGGLVQAGGTLRLSCAASGLTFARYAMGWYRQAPGKERELVAGIDSTGGTTYYADSVKGRFTISRDNAKNTFYLQMISLIPEDTAVYYCNTGGTFLDWVRSPFGFGYWGQGTQVTVSS", "polyreactivity (PSR sort gate)": "low polyreactivity"},
      {"sequence": "QVQLVESGGGLVQAGGTLRLSCAASGRIFQYYDMGWYRQAPGKERELVAAITFSGGSTYYADSVKGRFTISRDNAKNTVYLQMNSLKPEDTAVYYCARGYWVYYPDGDYWGQGTQVTVSS", "polyreactivity (PSR sort gate)": "low polyreactivity"},
      {"sequence": "QVQLVESGGGLVQAGGTLRLSCAASGRIFVINTMGWYRQAPGKERELVAAISRGGSTNYADSLKGRFTISRDNAKNTVYLQMNSLKPEDTAVYYCAATGYILFAGGGYDYWGQGTQVTVSS", "polyreactivity (PSR sort gate)": "low polyreactivity"},
      {"sequence": "QVQLVESGGGLVQAGGTLRLSCAASGRIISYNPMGWYRAAAGKEMELVAPINWGGGSTYYADSVKGRFTISRDNAKNTVYLQMNSLKPEDTAVYYCNADSNWYYQWNYYGLYDYWGQGTQVTVSS", "polyreactivity (PSR sort gate)": "low polyreactivity"},
      {"sequence": "QVQLVESGGGLVQAGGTLRLSCAASGSIFANYAMGWYRQAPGKERELVASISSGDSTNYADSVKGRFTISRDNAKNTVYLQMNSLKPEDTAVYYCASTFVGGIWSGYNYWGQGTQVTVSS", "polyreactivity (PSR sort gate)": "low polyreactivity"},
      {"sequence": "QVQLVESGGGLVQAGGTLRLSCAASGSIFLINAMGWYRPAPGKERELVAAISRSGGRTYYADSVKGRFTISRDNAKNTVYLQMNSLKPEDTAVYYCAVPSIYYAGRAYDYWGQGTQVSVSS", "polyreactivity (PSR sort gate)": "high polyreactivity"},
      {"sequence": "QVQLVESGGGLVQAGGTLRLSCAASGSIFRRKVMVWYRQAPGKERELVAAMSWSGDRTYYADSVKGRFTISRDNAKNTVYLQMNSLKPEDTAVYYCAAANASPRRYGQYDDWGQGTQVTVSS", "polyreactivity (PSR sort gate)": "high polyreactivity"},
      {"sequence": "QVQLVESGGGLVQAGGTLRLSCAASGSIFYRYDMGWYRPAPGKERELVAAITWSGGSTYYADSVKGRFTISRDNAKNTVYLQMNSLKPEDTAVYYCNAPGDGYLYDHTYDYWGQGTQVTVSS", "polyreactivity (PSR sort gate)": "low polyreactivity"},
      {"sequence": "QVQLVESGGGLVQAGGTLRLSCAASGSISIRNAMGWYRQAPGKERELVAAITYSGGSTYYADSVKGRFTISRDNAKNTVYLQMNSLKPEDTAVYYCAKDHYRFRYDYWGQGTQVTVSS", "polyreactivity (PSR sort gate)": "low polyreactivity"},
      {"sequence": "QVQLVESGGGLVQAGGTLRLSCAASGSTFLINAMGWYRQAPGKERELVAAISWGGGSTYYADSVKGRFTISRDNGKNSVDLQMNRLTPEDTAVYYCAARYWYRVDYWGQGTQVTVSS", "polyreactivity (PSR sort gate)": "high polyreactivity"},
      {"sequence": "QVQLVESGGGLVQAGGTLRLSCAASGYTLKWYTMGWYRQAPGKERELVATIRRGGGTYYADSVKGRFTISRDNAKNTVYLQMNSLKPVDTPVYYCAAEWSSVYNYDYWGQGTQVTVSS", "polyreactivity (PSR sort gate)": "low polyreactivity"},
      {"sequence": "QVQLVESGGGLVQAGGTLRLSCAASVFTFYYNTMGWYRQAPGKERELVAGIDISGSSTYADSVKGRFTISRDNAKNTVYLQMNSLKPEDTAVYYCAAVYFWGMDYWGQGTQVTVSS", "polyreactivity (PSR sort gate)": "low polyreactivity"},
      {"sequence": "QVQLVESGGGLVQAGGTLRLSCAASVSTIAQNAMGWYRQAPGKEREFVAAITGTVGSTYYADSVKGRFTISRDNAKNTVYLQMKSLKPEDTAVYYCNTRGFNGRVYPYDYWGQGTQVTVSS", "polyreactivity (PSR sort gate)": "low polyreactivity"},
      {"sequence": "QVQLVESGGGLVQAGGTLRLSCAATRSTFYPYAMGWYRQAPGKERELVAAISDGDSTNYADSVKGRFTISRDNAKNTVSLQMNSVKPEDTAVYYCNADYVRIFYSYYGYHDYDYWGQGTQVTVSS", "polyreactivity (PSR sort gate)": "low polyreactivity"},
      {"sequence": "QVQLVESGGGLVQAGGTLRLSCADSGSTFAGNGMGWYRQAPGKERQLVAGIDVTGGSTYYADSVKGRFTISRDNAKNTVYLQMNSLKPEDTAVYYCAARVVRYGYKYYYWGQGTQVTVSS", "polyreactivity (PSR sort gate)": "low polyreactivity"},
      {"sequence": "QVQLVESGGGLVQAGGTLRLSCAPSGSIFTFYAMGWYRQAPGKERELVAAITRSGGSTYYADSVKGRFTISRDNAKNTVYLQMNSLKPEDTAVYYCAKDPSSYVTYRYYYWGQGSQVTVSS", "polyreactivity (PSR sort gate)": "low polyreactivity"},
      {"sequence": "QVQLVESGGGLVQAGGTLRLSCAPSGSTFYANTMGWYRPAPGKERELVATISWTGSSTYYADSVKGRFTISRDNAKNTVYLQMNSLNPEDTAVYYCNKRYYYRRNYWGQGTQVTVSS", "polyreactivity (PSR sort gate)": "high polyreactivity"},
      {"sequence": "QVQLVESGGGLVQAGGTLRLSCSASGIISTYYAMGWYRQAPGKERELVAAITSGGSTYYADSVKGRFTISRDNAKNTVYLQMNSLKPEDTAVYYCATRRIYKWYRYYYWGQCTQVTVSS", "polyreactivity (PSR sort gate)": "high polyreactivity"},
      {"sequence": "QVQLVESGGGLVQAGGTLRLSWAASGSNFGFYTMGWYRLAPGKERELVAAITWSDSSTYADSVKGRYTISRDNAKNTVYLQMNSLKPEDTAVYYCNADTTTVEYYPFHYYTYDYWGQGTQVTVSS", "polyreactivity (PSR sort gate)": "low polyreactivity"},
      {"sequence": "QVQLVESGGGLVQAGGTLRLTCAASGLTFGSNAMGWYRTAPGKERELVAAISVSGSTYYADSVKGRFTISRDNAKNTVYLLMNSLKPEDTAVYYCATYWAAGSRSRYASWGQGTQVTVSS", "polyreactivity (PSR sort gate)": "high polyreactivity"},
      {"sequence": "QVQLVESGGGLVQAGRSLRLICAASGRILGGNTMGWYRQAPGKERELVAGISYSGGRTYYADSVQRRFTISRDNAKHTFYLQMNSLKPEDTAVYYCNVPLGRGRKIAYGYWGQGTQVTVSS", "polyreactivity (PSR sort gate)": "high polyreactivity"},
      {"sequence": "QVQLVESGGGLVQAGRSLRLICAASGRILVPYTMGWYRQAPGKERDLVAAITIGGRTTYADSVKGRLTISRDNAKNTLYLQMNIMKPEDTAVYYCAKRDWRYEWYGYDYWGQGTQVTVSS", "polyreactivity (PSR sort gate)": "low polyreactivity"},
      {"sequence": "QVQLVESGGGLVQAGRSLRLICAASGSIFDWYAMGWYRQAPGKEGELVAAISSGDSTYYADSVKGRFTISRDNAKNTVYLQMNSLKPEDTAVYYCAAVTKLSGIRYHYWGQGTQVTVSS", "polyreactivity (PSR sort gate)": "low polyreactivity"},
      {"sequence": "QVQLVESGGGLVQAGRSLRLRCPASGLTINSYAMGWYRQAPGKERELVAAIDWSGGRTYYADSVKGRFTISRDNAKNTVYLQMNSLKPEDTAVYYCAAYSRNRALRFNYWGQGTQVTVSS", "polyreactivity (PSR sort gate)": "high polyreactivity"},
      {"sequence": "QVQLVESGGGLVQAGRSLRLSCAASGFIFDWNAMGWYRQAPGKERELVAAISWSGGRTYYADSVKGRFTISRDNAKNTVYLQMNSLKPEDTAVYYCNARRYFSRDTSGYNYWGQGTQVTVSS", "polyreactivity (PSR sort gate)": "high polyreactivity"},
      {"sequence": "QVQLVESGGGLVQAGRSLRLSCAASGFIFRWYAMGWYRQAPGKERELVAGLTSGDNTYYADSVKGRFTISRDNAKNTVYLQMNSLKPEDTAVSYCAADGWLWSFTGDGWWFDYWGQGTQVTVSS", "polyreactivity (PSR sort gate)": "low polyreactivity"},
      {"sequence": "QVQLVESGGGLVQAGRSLRLSCAASGFIFRYYAMGWYRQAPGKETELVAAIRGGGSTYYADSVKGRFTISRDNAKNTVYLQMKSLNPEDTAVYYCAVRWVSRFGISSYDYWGQGTQVTVSS", "polyreactivity (PSR sort gate)": "high polyreactivity"},
      {"sequence": "QVQLVESGGGLVQAGRSLRLSCAASGFIFWSNTKGWYRQAPGKERELVAAISYSGARTYYADSVKGRFTISRDNAKNTVYLLMNSLKPEDTAVYDCAAYLWGTHDRMDYWGQGTQVTVSS", "polyreactivity (PSR sort gate)": "high polyreactivity"}
    ]}
  ]
}
